{"source": "paper PMC11190292", "about": "“Hetero-oligomerization of TDP-43 carboxy-terminal fragments with cellular proteins contributes to proteotoxicity” (Communications Biology, 2024)", "proteins": {"B1": {"name": "GFP-tagged TDP-43 carboxy-terminal fragment 233-414 (C233) (domain or fragment, human, UniProt Q13148 233-414, looked up)", "chain": "TFADDQIAQSLCGEDLIIKGISVHISNAEPKHNSNRQLERSGRFGGNPGGFGNQGGFGNSRGGGAGLGNNQGSNMGGGMNFGAFSINPAMMAAAQAALQSSWGMMGMLASQQNQSGPSGNNQNQGNMQREPNQAFGSGNNSYSGSNSGAAIGWGSASNAGSGSGFNGGFGSSMDSKSSGWGM", "notes": "Cloned into pmeGFP-C1 (HindIII/BamHI); also called G-C233; GFP-C233; source: Neuro2a, transfected, in lysate; not shown: GFP (monomeric enhanced GFP, A206K), N-terminal, kept"}}, "target": "the molecule itself", "experiment": "fluorescence correlation spectroscopy (FCS); soluble supernatant of transfected Neuro2a cell lysate (50 mM Hepes-KOH pH 7.5, 150 mM NaCl, 1% Nonidet P-40); counts per particle (CPP) against GFP monomers as read-out of homo-oligomerisation, diffusion time as read-out of size"}
{"protein": "B1", "values": [{"measurement": "counts per particle (CPP) relative to GFP monomers", "result": "~4", "unit": "fold"}]}
